± gives the uncertainty stated by the source.
B1: Transcriptional regulator ERG, residues 117 to 197; numbered along this chain, P11308 (parent)
chain: NMTTNERRVIVPADPTLWSTDHVRQWLEWAVKEYGLPDVNILLFQNIDGKELCKMTKDDFQRLTPSYNADILLSHLHYLRE

Variants of: B1
Assay: abundance fitness (aPCA) (normalised: wild type 0, dead -1); higher = more abundant; growth selection in yeast, the domain comes from the species named
Conditions: Homo sapiens

Question: For NMTTNGRRVIVPADPTLWSTDHVRQWLEWAVKEYGLPDVNILLFQNIDGKELCKMTKDDFQRLTPSYNADILLSHLHYLRE, which abundance fitness is on record?
Answer: 0.031 ± 0.029

Question: Which abundance fitness does the source give for NMTTNCRRVIVPADPTLWSTDHVRQWLEWAVKEYGLPDVNILLFQNIDGKELCKMTKDDFQRLTPSYNADILLSHLHYLRE here?
Answer: -0.242 ± 0.058

Question: Which abundance fitness does the source give for NMTTNRRRVIVPADPTLWSTDHVRQWLEWAVKEYGLPDVNILLFQNIDGKELCKMTKDDFQRLTPSYNADILLSHLHYLRE here?
Answer: -0.088 ± 0.036

Question: Which abundance fitness does the source give for NMTTNPRRVIVPADPTLWSTDHVRQWLEWAVKEYGLPDVNILLFQNIDGKELCKMTKDDFQRLTPSYNADILLSHLHYLRE here?
Answer: 0.033 ± 0.06

Question: With NMTTNMRRVIVPADPTLWSTDHVRQWLEWAVKEYGLPDVNILLFQNIDGKELCKMTKDDFQRLTPSYNADILLSHLHYLRE as the variant, how does the abundance fitness read?
Answer: 0.024 ± 0.059

Question: Which abundance fitness does the source give for NMTTNTRRVIVPADPTLWSTDHVRQWLEWAVKEYGLPDVNILLFQNIDGKELCKMTKDDFQRLTPSYNADILLSHLHYLRE here?
Answer: -0.017 ± 0.055

Question: Which abundance fitness does the source give for NMTTNDRRVIVPADPTLWSTDHVRQWLEWAVKEYGLPDVNILLFQNIDGKELCKMTKDDFQRLTPSYNADILLSHLHYLRE here?
Answer: -0.085 ± 0.073

Question: With NMTTNVRRVIVPADPTLWSTDHVRQWLEWAVKEYGLPDVNILLFQNIDGKELCKMTKDDFQRLTPSYNADILLSHLHYLRE as the variant, how does the abundance fitness read?
Answer: -0.142 ± 0.042

Question: With NMTTNSRRVIVPADPTLWSTDHVRQWLEWAVKEYGLPDVNILLFQNIDGKELCKMTKDDFQRLTPSYNADILLSHLHYLRE as the variant, how does the abundance fitness read?
Answer: -0.107 ± 0.047

Question: For NMTTNFRRVIVPADPTLWSTDHVRQWLEWAVKEYGLPDVNILLFQNIDGKELCKMTKDDFQRLTPSYNADILLSHLHYLRE, which abundance fitness is on record?
Answer: 0.002 ± 0.082

Question: Which abundance fitness does the source give for NMTTNIRRVIVPADPTLWSTDHVRQWLEWAVKEYGLPDVNILLFQNIDGKELCKMTKDDFQRLTPSYNADILLSHLHYLRE here?
Answer: 0.007 ± 0.091

Question: With NMTTNYRRVIVPADPTLWSTDHVRQWLEWAVKEYGLPDVNILLFQNIDGKELCKMTKDDFQRLTPSYNADILLSHLHYLRE as the variant, how does the abundance fitness read?
Answer: -0.089 ± 0.091

Question: Which abundance fitness does the source give for NMTTNWRRVIVPADPTLWSTDHVRQWLEWAVKEYGLPDVNILLFQNIDGKELCKMTKDDFQRLTPSYNADILLSHLHYLRE here?
Answer: 0.037 ± 0.041

Question: With NMTTGERRVIVPADPTLWSTDHVRQWLEWAVKEYGLPDVNILLFQNIDGKELCKMTKDDFQRLTPSYNADILLSHLHYLRE as the variant, how does the abundance fitness read?
Answer: -0.01 ± 0.034

Question: For NMTTKERRVIVPADPTLWSTDHVRQWLEWAVKEYGLPDVNILLFQNIDGKELCKMTKDDFQRLTPSYNADILLSHLHYLRE, which abundance fitness is on record?
Answer: 0.001 ± 0.056

Question: With NMTTPERRVIVPADPTLWSTDHVRQWLEWAVKEYGLPDVNILLFQNIDGKELCKMTKDDFQRLTPSYNADILLSHLHYLRE as the variant, how does the abundance fitness read?
Answer: -0.092 ± 0.058

Question: With NMTTFERRVIVPADPTLWSTDHVRQWLEWAVKEYGLPDVNILLFQNIDGKELCKMTKDDFQRLTPSYNADILLSHLHYLRE as the variant, how does the abundance fitness read?
Answer: 0.075 ± 0.079

Question: With NMTTIERRVIVPADPTLWSTDHVRQWLEWAVKEYGLPDVNILLFQNIDGKELCKMTKDDFQRLTPSYNADILLSHLHYLRE as the variant, how does the abundance fitness read?
Answer: 0.036 ± 0.092

Question: Which abundance fitness does the source give for NMTTWERRVIVPADPTLWSTDHVRQWLEWAVKEYGLPDVNILLFQNIDGKELCKMTKDDFQRLTPSYNADILLSHLHYLRE here?
Answer: -0.003 ± 0.049

Question: Which abundance fitness does the source give for NMTTTERRVIVPADPTLWSTDHVRQWLEWAVKEYGLPDVNILLFQNIDGKELCKMTKDDFQRLTPSYNADILLSHLHYLRE here?
Answer: -0.071 ± 0.052

Question: Which abundance fitness does the source give for NMTTAERRVIVPADPTLWSTDHVRQWLEWAVKEYGLPDVNILLFQNIDGKELCKMTKDDFQRLTPSYNADILLSHLHYLRE here?
Answer: -0.06 ± 0.043

Question: For NMTTDERRVIVPADPTLWSTDHVRQWLEWAVKEYGLPDVNILLFQNIDGKELCKMTKDDFQRLTPSYNADILLSHLHYLRE, which abundance fitness is on record?
Answer: 0.079 ± 0.068

Question: With NMTTYERRVIVPADPTLWSTDHVRQWLEWAVKEYGLPDVNILLFQNIDGKELCKMTKDDFQRLTPSYNADILLSHLHYLRE as the variant, how does the abundance fitness read?
Answer: -0.105 ± 0.089

Question: For NMTTCERRVIVPADPTLWSTDHVRQWLEWAVKEYGLPDVNILLFQNIDGKELCKMTKDDFQRLTPSYNADILLSHLHYLRE, which abundance fitness is on record?
Answer: -0.01 ± 0.066

Question: With NMTTMERRVIVPADPTLWSTDHVRQWLEWAVKEYGLPDVNILLFQNIDGKELCKMTKDDFQRLTPSYNADILLSHLHYLRE as the variant, how does the abundance fitness read?
Answer: 0.085 ± 0.05

Question: With NMTTSERRVIVPADPTLWSTDHVRQWLEWAVKEYGLPDVNILLFQNIDGKELCKMTKDDFQRLTPSYNADILLSHLHYLRE as the variant, how does the abundance fitness read?
Answer: -0.119 ± 0.046

Question: Which abundance fitness does the source give for NMTTHERRVIVPADPTLWSTDHVRQWLEWAVKEYGLPDVNILLFQNIDGKELCKMTKDDFQRLTPSYNADILLSHLHYLRE here?
Answer: -0.071 ± 0.078

Question: For NMTTEERRVIVPADPTLWSTDHVRQWLEWAVKEYGLPDVNILLFQNIDGKELCKMTKDDFQRLTPSYNADILLSHLHYLRE, which abundance fitness is on record?
Answer: 0.064 ± 0.047

Question: For NMTTRERRVIVPADPTLWSTDHVRQWLEWAVKEYGLPDVNILLFQNIDGKELCKMTKDDFQRLTPSYNADILLSHLHYLRE, which abundance fitness is on record?
Answer: -0.044 ± 0.037

Question: With NMTTVERRVIVPADPTLWSTDHVRQWLEWAVKEYGLPDVNILLFQNIDGKELCKMTKDDFQRLTPSYNADILLSHLHYLRE as the variant, how does the abundance fitness read?
Answer: -0.004 ± 0.044

Question: For NMTYNERRVIVPADPTLWSTDHVRQWLEWAVKEYGLPDVNILLFQNIDGKELCKMTKDDFQRLTPSYNADILLSHLHYLRE, which abundance fitness is on record?
Answer: -0.04 ± 0.078

Question: Which abundance fitness does the source give for NMTWNERRVIVPADPTLWSTDHVRQWLEWAVKEYGLPDVNILLFQNIDGKELCKMTKDDFQRLTPSYNADILLSHLHYLRE here?
Answer: 0.01 ± 0.047

Question: For NMTRNERRVIVPADPTLWSTDHVRQWLEWAVKEYGLPDVNILLFQNIDGKELCKMTKDDFQRLTPSYNADILLSHLHYLRE, which abundance fitness is on record?
Answer: -0.149 ± 0.037

Question: With NMTQNERRVIVPADPTLWSTDHVRQWLEWAVKEYGLPDVNILLFQNIDGKELCKMTKDDFQRLTPSYNADILLSHLHYLRE as the variant, how does the abundance fitness read?
Answer: -0.126 ± 0.054
